Earlier results, collected in US11040110B2, “Polypeptide complex comprising non-peptidyl polymer having three functional ends” (HANMI SCIENCE CO., LTD., priority 2008, dated 2021).

Conditions: Osborn et al. 2002

For interferon alpha, the serum half-life is given as 5 h.
